Measurements reported in patent publication US20220332804A1 (CSL INNOVATION, published 2022).
Changes are numbered by the printed parent chain.

Legend:
Assay in all cases: SPR, antibody captured, C2 as analyte;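 further: biacore SPR at 37 °C, anti-C2 mAbs captured via goat anti-human IgG on CM5 chips, double-referenced sensorgrams fit to a 1:1 kinetic or steady-state model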
[1] = biological target: T1, human C2 K274A (human, UniProt P06681 21-752)
T1 sequence: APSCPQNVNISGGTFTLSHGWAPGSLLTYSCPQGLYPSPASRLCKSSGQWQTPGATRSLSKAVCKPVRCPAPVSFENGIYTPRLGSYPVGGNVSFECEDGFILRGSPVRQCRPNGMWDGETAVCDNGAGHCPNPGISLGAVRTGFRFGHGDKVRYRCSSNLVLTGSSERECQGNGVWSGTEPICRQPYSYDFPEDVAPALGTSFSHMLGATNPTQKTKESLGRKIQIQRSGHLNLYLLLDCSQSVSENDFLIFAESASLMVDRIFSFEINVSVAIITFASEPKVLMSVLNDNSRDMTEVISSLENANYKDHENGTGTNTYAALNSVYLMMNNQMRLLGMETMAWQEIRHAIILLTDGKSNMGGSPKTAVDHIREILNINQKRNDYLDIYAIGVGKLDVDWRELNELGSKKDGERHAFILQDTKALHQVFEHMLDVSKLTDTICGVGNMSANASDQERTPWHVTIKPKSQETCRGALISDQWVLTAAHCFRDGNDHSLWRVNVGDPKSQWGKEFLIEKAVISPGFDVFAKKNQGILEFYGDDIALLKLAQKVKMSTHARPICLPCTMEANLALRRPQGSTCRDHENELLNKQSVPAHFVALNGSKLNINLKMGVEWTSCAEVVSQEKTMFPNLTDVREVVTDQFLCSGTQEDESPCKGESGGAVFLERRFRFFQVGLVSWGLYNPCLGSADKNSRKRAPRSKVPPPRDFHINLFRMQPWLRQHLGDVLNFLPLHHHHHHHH
Description: (§1) Surface plasmon resonance (SPR, Biacore) was used for all binding affinity analyses. In brief, goat anti-human IgG was directly immobilised onto the carboxymethyl dextran surface of CM5 sensorchips to approximately 12,000 RU using standard NHS/EDC chemistry at pH 5. The immobilised antibody surface was pre-conditioned with ten injections of polyclonal human IgG (Privigen 60 s) prepared at 1 μg/mL. Ligands (anti-C2 mAbs) were captured at the beginning of each cycle as described below. An adjacent spot or flow cell in which only Polyclonal IgG was capture was used as a reference surface. The goat anti-human IgG Fc antibody surface was regenerate in 100 mM H3PO4, injected for 45 seconds at the end of each cycle. Experiments were performed at 37° C. and the flow rate of each experiment was kept constant at 30 μL/min.
(§2) Sensogram data was double-referenced against a reference anti-IgG surface (i.e. minus anti-C2 mAb) and blank buffer injections obtained within each experiment. The binding data was fit to 1:1 (kinetic or steady-state) model using local Rmax and null refraction index (RI=0) when appropriate. Buffers and solutions were filtered (0.22 μm) prior to use.

[2] = biological target: T2, human C2 V448A (human, UniProt P06681 21-752)
T2 sequence: T1 sequence with A254K, V428A
Description: as §1, §2

[3] = biological target: T3, human C2 K487A (human, UniProt P06681 21-752)
T3 sequence: T1 sequence with A254K, K467A
Description: as §1, §2

[4] = biological target: T4, human C2 Y558A (human, UniProt P06681 21-752)
T4 sequence: T1 sequence with A254K, Y538A
Description: as §1, §2

B1: RF16-226 (antibody, human IgG4 S228P, lambda)
heavy: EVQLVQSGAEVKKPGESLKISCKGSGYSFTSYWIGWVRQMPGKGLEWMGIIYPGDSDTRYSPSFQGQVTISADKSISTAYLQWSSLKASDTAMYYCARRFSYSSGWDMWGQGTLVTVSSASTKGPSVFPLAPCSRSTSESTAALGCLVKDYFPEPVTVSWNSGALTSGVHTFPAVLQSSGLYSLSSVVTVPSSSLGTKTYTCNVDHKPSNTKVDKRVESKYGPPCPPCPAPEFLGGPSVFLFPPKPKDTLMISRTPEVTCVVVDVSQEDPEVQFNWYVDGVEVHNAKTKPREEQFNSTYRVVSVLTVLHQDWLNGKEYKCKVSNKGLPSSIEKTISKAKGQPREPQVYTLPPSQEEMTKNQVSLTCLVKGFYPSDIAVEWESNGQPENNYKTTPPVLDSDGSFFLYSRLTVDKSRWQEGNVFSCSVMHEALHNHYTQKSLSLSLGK
light: SYELTQPPSVSVSPGQTARITCSGDALTSKYVAWYQQKSGLAPLLVIYEDTRRPSGIPAKFSGSSSGSVATLTISGAHGDDEADYYCYSTDASGHQRVFGGGTKLTVLSQPKAAPSVTLFPPSSEELQANKATLVCLISDFYPGAVTVAWKADGSPVKAGVETTKPSKQSNNKYAASSYLSLTPEQWKSHRSYSCQVTHEGSTVEKTVAPTECS
notes: pH-dependent anti-C2 antibody from a phage display library; also called WT
**Q.** How did the Kd [1] turn out when B1 was run?
**A.** 0.291 µM

**Q.** What about the Kd [2] of the same binder?
**A.** 0.0044 µM

**Q.** And the Kd [3]?
**A.** 0.093 µM

**Q.** And the Kd [4]?
**A.** 0.158 µM
